Assay results published in patent US20030100489.

System: p16

Substance: CDK2
- RB phosphorylation by CDK2-cyclin D2 complexes: No inhibition was observed when CDK2-cyclin D2 complexes were used in a similar assay
